From patent publication US20090202437A1 (UMC UTRECHT HOLDING B V, published 2009)

Biological target: T1, recombinant human MASP-2 (consisting of the two complement control regions and the serine protease domain) (human, UniProt O00187 298-686)
T1 construct: domain: the two complement control regions and the serine protease domains; also called rMASP-2; MBL associated serine protease-2
Assay: size-exclusion chromatography (Superose-6) of 125I-labelled rLPI incubated with rMASP-2

T1 sequence (O00187 298-686 limits assumed): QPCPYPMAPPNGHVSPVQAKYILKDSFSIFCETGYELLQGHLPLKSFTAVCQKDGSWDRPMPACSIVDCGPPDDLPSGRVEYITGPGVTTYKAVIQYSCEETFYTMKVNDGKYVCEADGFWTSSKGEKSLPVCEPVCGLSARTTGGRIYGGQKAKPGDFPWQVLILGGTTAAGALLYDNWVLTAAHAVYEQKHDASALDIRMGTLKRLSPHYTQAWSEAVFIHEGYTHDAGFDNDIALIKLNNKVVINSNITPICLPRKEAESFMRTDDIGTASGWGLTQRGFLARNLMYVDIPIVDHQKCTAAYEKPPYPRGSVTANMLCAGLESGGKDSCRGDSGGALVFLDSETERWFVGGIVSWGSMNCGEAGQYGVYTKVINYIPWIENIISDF

B1: recombinant LPI (Lectin Pathway Inhibitor) of Staphylococcus aureus (other)
chain: STSLPTSNEYQNEKLANELKSLLDELNVNELATGSLNTYYKRTIKISGQKAMYALKSKDFKKMSEAKYQLQKIYNEIDEALKSKY
notes: also called rLPI; 125I-LPI
B1: binds.
